Sequences and labels used below:
B1: Protein piccolo, residues 1058 to 1114; numbered along this chain, Q9Y6V0 (parent)
chain: TCPLCKTELNIGSKDPPNFNTCTECKNQVCNLCGFNPTPHLTEIQEWLCLNCQTQRA

± gives the uncertainty stated by the source.

The variants in the data set derive from B1. Nature of the data set: abundance fitness (aPCA) (normalised: wild type 0, dead -1); higher = more abundant; growth selection in yeast, the domain comes from the species named. Particulars: Homo sapiens.
Regarding TCPLCKTYLNIGSKDPPNFNTCTECKNQVCNLCGFNPTPHLTEIQEWLCLNCQTQRA [E8Y], the abundance fitness was -0.679 ± 0.14.

With TCPLCKTELNIGSKDPPNFNTCTECKNQVRNLCGFNPTPHLTEIQEWLCLNCQTQRA [C30R], the abundance fitness was -0.541 ± 0.099.

With TCPLCKTELNMGSKDPPNFNTCTECKNQVCNLCGFNPTPHLTEIQEWLCLNCQTQRA [I11M], the abundance fitness was 0.039 ± 0.15.

Take SCPLCKTELNIGSKDPPNFNTCTECKNQVCNLCGFNPTPHLTEIQEWLCLNCQTQRA [T1S]: the abundance fitness was -0.129 ± 0.18.

On to GCPLCKTELNIGSKDPPNFNTCTECKNQVCNLCGFNPTPHLTEIQEWLCLNCQTQRA [T1G], for which the abundance fitness is -0.205 ± 0.27.

Regarding TCPLCKTELNIGSKDPPNFLTCTECKNQVCNLCGFNPTPHLTEIQEWLCLNCQTQRA [N20L], the abundance fitness was -0.024 ± 0.085.

TCPLCKTELNIGSKDNPNFNTCTECKNQVCNLCGFNPTPHLTEIQEWLCLNCQTQRA [P16N]: the abundance fitness is -0.229 ± 0.26.

Turning to TCPLCKTELNIGSKDQPNFNTCTECKNQVCNLCGFNPTPHLTEIQEWLCLNCQTQRA [P16Q], the abundance fitness is -0.094 ± 0.16.

As for TCPLCKTELNIGSKDAPNFNTCTECKNQVCNLCGFNPTPHLTEIQEWLCLNCQTQRA [P16A], the abundance fitness was -0.37 ± 0.2.

For TCILCKTELNIGSKDPPNFNTCTECKNQVCNLCGFNPTPHLTEIQEWLCLNCQTQRA [P3I], the abundance fitness was -0.073 ± 0.18.

Take TCELCKTELNIGSKDPPNFNTCTECKNQVCNLCGFNPTPHLTEIQEWLCLNCQTQRA [P3E]: the abundance fitness is -0.32 ± 0.2.

Take TCYLCKTELNIGSKDPPNFNTCTECKNQVCNLCGFNPTPHLTEIQEWLCLNCQTQRA [P3Y]: the abundance fitness was -0.142 ± 0.16.

On to TCPLCKTELNIGSKDPPNFNTCTECKNQVCNLCGFNPTPHLTEKQEWLCLNCQTQRA [I44K], for which the abundance fitness worked out at 0.247 ± 0.46.

For the variant TCPLCKTELNIGSKDPPNFNTCTECKNQVCNLCGFNPTPHLTEVQEWLCLNCQTQRA [I44V], the abundance fitness was -0.014 ± 0.15.

As to TCPLCKTELNIGSKDPPNFNTCTECKNQVCNLCGFNPTPHLTEEQEWLCLNCQTQRA [I44E], the abundance fitness turned out to be 0.146 ± 0.16.

As to TCPLCKTELNIGSKDPPNFNTCTECKNQVCNLCGFNPTPHLTEAQEWLCLNCQTQRA [I44A], the abundance fitness is -0.022 ± 0.17.

On to TCPLCKTELNIGGKDPPNFNTCTECKNQVCNLCGFNPTPHLTEIQEWLCLNCQTQRA [S13G], for which the abundance fitness was -0.525 ± 0.1.

As for TCPLCKTELNIGMKDPPNFNTCTECKNQVCNLCGFNPTPHLTEIQEWLCLNCQTQRA [S13M], the abundance fitness came out at 0.012 ± 0.1.

For the variant TCPLCKTELNIGCKDPPNFNTCTECKNQVCNLCGFNPTPHLTEIQEWLCLNCQTQRA [S13C], the abundance fitness is -0.384 ± 0.13.

Turning to TCPLCKTELNIGYKDPPNFNTCTECKNQVCNLCGFNPTPHLTEIQEWLCLNCQTQRA [S13Y], the abundance fitness is -0.227 ± 0.18.

Regarding TCPLCWTELNIGSKDPPNFNTCTECKNQVCNLCGFNPTPHLTEIQEWLCLNCQTQRA [K6W], the abundance fitness is -0.795 ± 0.088.

For the variant TCPLCNTELNIGSKDPPNFNTCTECKNQVCNLCGFNPTPHLTEIQEWLCLNCQTQRA [K6N], the abundance fitness came out at 0.071 ± 0.16.

For TCPLCKTEWNIGSKDPPNFNTCTECKNQVCNLCGFNPTPHLTEIQEWLCLNCQTQRA [L9W], the abundance fitness is -0.419 ± 0.092.

Regarding TCPLCKTEFNIGSKDPPNFNTCTECKNQVCNLCGFNPTPHLTEIQEWLCLNCQTQRA [L9F], the abundance fitness worked out at 0.007 ± 0.11.

With TCPLCKTESNIGSKDPPNFNTCTECKNQVCNLCGFNPTPHLTEIQEWLCLNCQTQRA [L9S], the abundance fitness was -0.042 ± 0.082.

For TCPLCKTELNIGSKDPPNFNTCTECKNQVCNLCGFNPTPHLTEIQEWLCLNGQTQRA [C52G], the abundance fitness was -0.727 ± 0.12.

For the variant TCPLCKTELNIGSKDPPNFNTCTECKNQVCNLCGFNPTPHLTEIQEWLCLNRQTQRA [C52R], the abundance fitness is -0.701 ± 0.13.

Take TCPLCKTELNIGSKDPPNFNTCTECKNQVCNLCGFNPTPHLTEIQCWLCLNCQTQRA [E46C]: the abundance fitness is -0.292 ± 0.16.

For TCPLCKTELNIGSKDPPNFNTCTECKNQVCNLCGFNPTPHLTEIQWWLCLNCQTQRA [E46W], the abundance fitness is -0.401 ± 0.18.

On to TCPLCKTELNIGSKDPPNFNTCTKCKNQVCNLCGFNPTPHLTEIQEWLCLNCQTQRA [E24K], for which the abundance fitness was -0.017 ± 0.12.

TCPLCKTELNIGSKDPPNFNTCTCCKNQVCNLCGFNPTPHLTEIQEWLCLNCQTQRA [E24C]: the abundance fitness is -0.706 ± 0.088.

Regarding TCPLCKTELNIGSKDPPNFNTCTECKNQVCNLCGFNPTPHLTDIQEWLCLNCQTQRA [E43D], the abundance fitness is -0.096 ± 0.19.

Turning to TCPLCKTELNIGSKDPPNFNTCTECKNQVCNLCGFNPTPHLTGIQEWLCLNCQTQRA [E43G], the abundance fitness is 0.003 ± 0.11.

In the case of TCPLCKTELNIGSKDPPCFNTCTECKNQVCNLCGFNPTPHLTEIQEWLCLNCQTQRA [N18C], the abundance fitness is -0.219 ± 0.14.

Consider TCPLCKTELNIGSKDPPMFNTCTECKNQVCNLCGFNPTPHLTEIQEWLCLNCQTQRA [N18M], for which the abundance fitness was -0.842 ± 0.14.

Regarding TCPLCKTELNIGSKLPPNFNTCTECKNQVCNLCGFNPTPHLTEIQEWLCLNCQTQRA [D15L], the abundance fitness amounted to 0.015 ± 0.081.

TCPLCKTELNIGSKGPPNFNTCTECKNQVCNLCGFNPTPHLTEIQEWLCLNCQTQRA [D15G]: the abundance fitness is -0.124 ± 0.096.

With TCPGCKTELNIGSKDPPNFNTCTECKNQVCNLCGFNPTPHLTEIQEWLCLNCQTQRA [L4G], the abundance fitness was determined as 0.067 ± 0.084.

TCPNCKTELNIGSKDPPNFNTCTECKNQVCNLCGFNPTPHLTEIQEWLCLNCQTQRA [L4N]: the abundance fitness came out at 0.036 ± 0.21.

Take TCPHCKTELNIGSKDPPNFNTCTECKNQVCNLCGFNPTPHLTEIQEWLCLNCQTQRA [L4H]: the abundance fitness was 0.054 ± 0.2.

With TCPLCKTELNIGSHDPPNFNTCTECKNQVCNLCGFNPTPHLTEIQEWLCLNCQTQRA [K14H], the abundance fitness was 0.056 ± 0.18.

As to TCPLCKTELNIGSQDPPNFNTCTECKNQVCNLCGFNPTPHLTEIQEWLCLNCQTQRA [K14Q], the abundance fitness is -0.092 ± 0.23.

As to TCPLCKTELNIGSLDPPNFNTCTECKNQVCNLCGFNPTPHLTEIQEWLCLNCQTQRA [K14L], the abundance fitness was -0.644 ± 0.12.

Turning to TCPLCKTELNIGSKDPPNFNTCTECKNQVCNLCGFNPTPHLTEIQEWLCLNCQWQRA [T54W], the abundance fitness is -0.441 ± 0.15.

As for TCPLCKTELNIGSKDPPNFNTCTECKNQVCNLCGFNPTPHLTEIQEWLCLNCQCQRA [T54C], the abundance fitness is -0.182 ± 0.24.

For the variant TCPLCKTELNIGSKDPPNFNTCTECKNQVCNLCGFNPTPHLTEIQEWLCLECQTQRA [N51E], the abundance fitness is -0.099 ± 0.21.

As for TCPLCKTELNIGSKDPPNFNTCTECKNQVCNLCGFNPTPHLKEIQEWLCLNCQTQRA [T42K], the abundance fitness is -0.056 ± 0.18.

The values are drawn from the Human Domainome abundance scans (Beltran et al. 2025).
